From patent publication US6967092 (dated 2005) come the findings set out here.

The assay deals with T1, human G-CSF receptor transfected in BaF3 cells (human, UniProt Q99062 25-836).
T1 construct: whole, on cells; also called hG-CSF receptor; BaF3/hG-CSF
The assay can be described thus: competition with an agonist-specific radioligand, BaF3 cells transfected with the G-CSF receptor.

B1: G-CSF (ligand)
chain: not shown
The IC50 is the concentration that gives 50% inhibition. Turning to B1, the IC50 was 0.69 nM. This lies in the sub-nanomolar range.
